Data reported in the domain aggregation screens of Martell et al. (2025).

Assay: soluble fraction after stress (log2 fold change); higher = more stays soluble; pooled small domains, quantitative proteomics
Details: stress: 50 degC
Method in brief: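 Pooled custom libraries of small protein domains were measured in a high-throughput format, with quantitative proteomics as the read-out. Each library was stressed at 50°C. Aggregation propensity is given as the base-two logarithm of the fold change in how much of each protein stays soluble after the stress. Higher values mean a larger share of the protein remains in solution.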

Row | Sequence | soluble fraction (log2)
1 | HMDPEARRRAILNAAIDVIVEKGAAALTHRAVAARAGVSLGSTTKYFSSIEDLRENAMDALVREMD | -0.273
2 | HMEFDTEFVLRQAMHAFMQYGYAKTSMQKLKEATHLHPGSIYAAYGNKKGLFLAATEQYQKDR | -0.0761
3 | HMVMNKQEFLKILRDTLQSQLSSRETENHVEYYRTYIEEQMREGKTEIEILDVLGDPRLIARTILET | -0.0725
4 | HMVVVMNADAEADEIKRVKWNLEQMLFRTQVIYGVKRIVIGAIGDQREVDLSEIEQMPKVDKIVRISK | -1.4
5 | HMSEYVIVTGEKVNLRVGPGMDYEIAGQVVKGDKLELLASEGDWSKVKTGSGSIYYISSSLVQKA | -0.238
6 | HMELSSRQAMIVDIVRKYEPITSEQIADKLNLTRSALRPDLAVLTMIGILEARPRVGYFFTGK | 0.141
7 | HMEPIAFDNMHNRGIKGTNDWTQYEITLPFSAEAKKIFVAGLLVGKGKAWFDKFEVFLDGKNITDVAQI | 0.124
8 | HMREKPRETFQRIAEKVGQTLRKGPVRVQQMDLLFSESREQVMEVLRAMAESGEIRIQDDTLHWNGHT | 0.311
9 | HMGPAYEKIVANGQTFYRYNVKKGEGLMAVSRTFNVSVNDILKYNPSAASGLKDGQELLIPVIDDA | 0.164
10 | HMNNFTPEHLEKDIEGSLFFRRLKETAREEPGSLTVAQKDFIQMWHDQADGVYTLRQVFVQTAFDHVRSL | 0.1
11 | HMVFSNLGSRGEEVRQIQTKLKELGYLQGNVDGIYGNQTKQAVTAFQRDHGLSADGIAGEKTLAALGIG | 0.315
12 | HMYNSYALTARELELVNYVLKGNSRREMAEDSGLKENTVASYMKRLYRKIKVHSRKELKELFM | -0.0805
13 | HMGLTLREKMGHVLEMLKGREFLPFVSLFTVEEGRIGVVVTFMSILELVKEGILDLVQTESFGPIHVKAR | -0.326
14 | HMINLDGIGEKISRLRKEQGVTIRELSEYTGYSVGFLSNLETGKNSPTVESLQRVAEALRTDIIEILTK | -0.312
15 | HMFQRLPFSFANRYKMVLEYQHPERPPVLYYVEPLKAAAILEVSRVIKSGFTPQAIVSDEFEKKLTEAYQR | -1.1
16 | HMSRYQDIANDIEKDIIEKKYTRKLPEQFELAQKYQTSRVTIVHALKILQNKKLIRTVKGHGTFITS | -1.4
17 | HMLRPMVAILNKNISKGQVISEDYIKFEVRPERQIHGAYHDISEVLGRKTKNNIAAGTILKVRHLDT | -0.201
18 | HMKELTPEQLQHNWNNLRQFIDVNFSGDRLGGLNKMYDYFEERMMFAPASGKQHYHNAFAGGYVEHVMHV | 0.335
19 | HMGDTVSGTMLNLKPGVRVVHQIFGPGRVEETTGASLAEFRVTVRFEQKGLKTLLLQYAALQVINSEN | -0.795
20 | HMGMLATFVTSAKVPDDVVYAITKEVFENLDEFKKLHPALEGLTRETMLEGLTAPIHPGALKYYKEAGLM | -0.522
21 | HMEIYIDGNKYVGELRNGKPNGRGTITYTGDGSKYVGEWKNGKRYGRGKMAYTNGTTKEGVWKDDEFLYAT | 0.0597
22 | HMSPQPPNQEAVRTRILDQAAHLFLTIGYAETTVRRIAGAVGIKAASLYHHFGSKDEVFESILIR | 0.0413
23 | HMNTAIDGLIEKVGMFAMEKKAISVDQVKENFSINGEQAESVIKQLETIGVLGKKNEDGTHTVM | 0.0766
24 | HMKKILLGDVNLDGKVDVNDVTLLQRYIAGETEVITSKDALTATNFNKDGNIDVLDVTDIQTFIANSE | 0.0836
25 | HMLSLSDIINDVMERLTREKNLTFDELLGEKRERRRIVYTFLALLELIRLKMIKAYQTAAFGVIRIFPR | -0.898

Row | Sequence | soluble fraction (log2)
26 | HMDKKIVGVNAGKVWQALNEVTEISIVELAEKLNLSVESTALAAGWLAREDQISIERKNGTIELQRKN | -0.263
27 | HMERDIATKHEVNRTVEAYSDIVKTLNLPSHKINLVEISFFNILKRSKPSPRENSILLGLAQKIKLHLEKK | -0.477
28 | HMDVSVPDVTGTRLDRAQSLLEAQGLTLGKVEEFFHATEPAGIVYDQEPRPGTRVDEGTAISVSVSKGPEA | 0.0552
29 | HMSREVTVPPLSGLTLRDAARTLAERGLLMEAEGQGAVHRQDPPAGTRVPTGTPVRVFLTLPEQNS | 0.333
30 | HMANVQLAKNLKTLRKKYNYTQQDVSTFLNITRQAYSHYEQALREPDLNTLVHLSRFYQVTLDELI | -3.8
31 | HMVDQKLIQASAEHSGIRIDRFLSEQLPEHSRSYIQKLIKDGQVSIGGKAVKSNYKIAGTEEISLLIPDQ | 0.0523
32 | HMNNLELSEEEKSVLTIIEKEGLIELDKLKTKLELSNKKWDKTLKFLTKNKLAKVVKNDNGLFVEL | 0.0812
33 | HMNHAPSLMRKIRRGLKEGRNPDDLLVNAKSISDYYYRSLSFYLLAPHFSSKSKQYKQVISLANS | 0.036
34 | HMQAKQVAIPDVANYSVTDAIKKLQDAGFIVSDEQREEANETVSEGKVSRTSPAAGSIRKEGTEIILYKSL | 0.198
35 | HMLYDNQLPDWAGQMVKNHGLTISPKALVILVDHIGNDLSRIENEIEKLMLNLGTRKSITEDDVEN | -1.28
36 | HMINYYELLKLDMNAAHEEINDAIKLESEKNTIPEDQIRTMKSIFFNTEFKKEYDQRLMNFLLT | -0.319
37 | HMTSPLQIHPNPATKHIELGLESPEVVLIKDINGKTVYQELVAPNQYIDIEHLKNGIYFIESKNKFGKLIK | 0.169
38 | HMRMSQLSRLISILTLLKSKRLLTATELAEKYDVSIRTVYRDIRKLEEAGIPVYTIEGRGYSLMDNYT | -1.6
39 | HMLGSGSKEQQLVILNNILERQVQAFNLQGGQEYPMVTLKNFYNTLSKMIENAGLKNVENYFVNPDVGKQM | -0.302
40 | HMENAEALLKKLSGVLSDYEYKMLMLYADGKTPRRIAQETGQSAKSVSNALFRARTKLKELYEDQ | -0.331
41 | HMRPLISQTLRIDRGEGDIAGPLGVLAKEYPHLSMGSYPFQKDGIYGAHVVIRGSDPGMVEAAMDKLKAAF | 0.018
42 | HMAATGPLTPREAEIARLAAGHLSNRQIAEQLVVSERTVENHLYRIFIKLAVTGRDDLAAALAATEQ | -0.689
43 | HMDDLSPEENKVIGAQVREELARRRLSRQHLADKAKISLSTLEKALTGTRPFTLASVVRIEEALQLQLRK | -0.484
44 | HMTRHSSVDFAGYILRNKENEPIFGFGKHKGKTVVEVLQREQGYFGWLMEADFPLYTKKVLTAIRLNTLNS | -0.117
45 | HMLDLVSIGKRIKAERQKNGLTQEALAERIEVSAHYVYELERGLKAMSVPILLRMSEVLHTSTDYLLF | -2.9
46 | HMESLGEKIKNIRISNNLKQSELADILHISEKTISSWENNRTTPDLNMIYKISNYFKKSFYYLISDDYI | -1.02
47 | HMSQDEVVADMKADLGPDADNIIRSNIQWADGLVRKGILTESEREELDVMGGTPEAQRILVKLRTMQG | 0.0777
48 | HMRKIGDVLRLHAGGLSKRRIAVSLNIGRTAVGDYISRARRAGLGWPLPEDLSEEALERLLFPPP | -2.59
49 | HMELSTQERIQILLEILNQREIISFSQTLRKKEGKKGVVVTFLASLELAKDGYVTLVQNKSDQIYLRSN | -0.7
50 | HMTVPDVKGMGARDAVFLLETLGFKVRINGIGQVYEQSIDPGKSYSKGEFISLRL | -0.51

Row | Sequence | soluble fraction (log2)
51 | HMPVSTLLGDNLRRLRTAKGYTQEAVADAARISVAAYRNYETGRAIPKVNTLLAIARALGVSLNDLVTE | -0.104
52 | HMQDPVWVDWLGENDWFQKDPKRRGLANGYSEILRAEQPELVGRPFLDEVTRRVQADFPELFG | -0.335
53 | HMKFINISIDKSGNLFINKKSIKFQDLKYNVVNLVDESKNLVVLNADENISHGYVISVLDVLRSIDGLKLA | -2.18
54 | HMQVPWYQRLKEKRLEYGVSQNKLATHIGISRQYMSEIETGKVTPSDSLQATLFDILEQFNPDA | -0.363
55 | HMKTEKYIQVISGTVNVRSGPGTSYAEIAKIDASQIYVVTAKEGEWLKISLANGTIGYVAGWLVKEVTG | -0.186
56 | HMSFTSQSVLIEIVRGTTQLTPLAAAVGANKREVVLAVHRLKQRGLVVSAGLGQYAATEAGRAFLTAGREV | -2.76
57 | HMYFEDEELDRFVGTPAGAYTEEDVEEFRDVLLSLDIEEVPSWVRSLQLRGIDFPETLRPELYLL | -3.14
58 | HMDHAHWEEHEVKLLLTLAIQEKEKFNWNQFGLTREGWRNIYPHFPQYSRKQINNKFDFLKQKYRAWKDS | -1.84
59 | HMSVFGDNVARLRAEHGMSQRALAERLEITNGTVAAWESRDTLPDYDRIRQIAEIFDVPIPQLFAKYIP | -1.66
60 | HMEEITLQEQINFIKDMLLNKEKFHLTDVITKKSKIYVVSLFLALLELIRLEEINFRQTQNFSDIIISRI | -0.138
61 | HMGKPTPASQVATRWLAGDLPETLPVAGPAPSFETLARSVSTDFHPRAVLQELLRLGVAEEADGRVRLLK | 0.00959
62 | HMLLLHINQMGVTEFSQLELNHVRSWLANLQIKGAARSSITRRVVSVRAFTYWGAKNGWLASDIGRDLVAP | -0.277
63 | HMDEEVLVVQEGGERLDVFVAANAEGITRSFVQNLIKKGDVTVDGAPRKANYRLRSGQVVRFSLPEP | -0.328
64 | HMAMNITQRHQEILAVIKQEKHITVSEISKLLGVSEVTIRKDFNYLEEKNLIYRHHGGASLNN | -1.58
65 | HMQRDDMQIDRLIQIVFLLLSRNNLTAKQLAEELGVSTRTIYRDINILSVAGIPITSQKGYGGGLSLLQG | -0.62
66 | HMFSMKDFGQRLRQLRKERGLTQGDLARLAKIDIMQVSRYERGLGLPSLETAIALARVLETSTDLLFLG | -1.46
67 | HMAGATDTVRNLLERQIREGELLPGQRLPTEPELAARLGVSRNSLREALQSLEDSGLIVKRHGIGTFVTE | 0.0848
68 | HMNHYIGVDRAKEIALNHANLSETDVVFTKEKLENDDGGAEYEIEFHSGRTEYDYTIDAASGNIIEYDVDY | 0.421
69 | HMETIELSAPGGVRLDKLIADGTELSRSAAVKLIEQGNVLVNGSPAGKKDIPAAGAAVEITLPEPQ | -0.134
70 | HMHSLGDQVFETIKELIVNNTYQPGELLQIDKLAAEFGVSTTPVREALLRLEGLGLVDIERNKAAVVT | -0.112
71 | HMITTLLVENLQDVGMRLDHYLVYNLIKYSRSHIQSFIRSGDIRVNGKKVKTGYSLELKDLIHIEMP | -3.75
72 | HMWPDDAIALPTRDGQDVGGAQERTMLAFASGAAGIRTVEEINPDGSITRLRTRYGWPTFETEGARTAAAE | -0.109
73 | HMEDELVMERFDINELVKSVVNANELRATQKNLSITYDILDTPLYVWADEYKVEEVVTNYLS | -0.143
74 | HMGNYRVIKWGMQGDDVKLMQQMLINRGYVLSATGKYASRTLKAIMAFQEANGLKADGIVGKRTWNKLL | -2.66
75 | HMDLQAAWLQTVRHLLAHTEDVGDRFAEEARRIHYGEEPHRGIRGQATPEERLALREEGIETMSIPV | -0.631
